{"source": "patent US20070196376A1", "key": {"[1]": {"target": "rat insulin (rat)", "assay": "ELISA on rat insulin; No Ag well 0.10"}, "[2]": {"target": "mouse insulin (mouse)", "sequence (P01308 whole entry)": "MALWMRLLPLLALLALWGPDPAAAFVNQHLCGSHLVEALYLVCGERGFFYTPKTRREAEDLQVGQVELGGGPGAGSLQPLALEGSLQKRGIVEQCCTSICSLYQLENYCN", "assay": "ELISA on mouse insulin; No Ag well 0.10"}}}
{"substance": "positive control anti-rat insulin antibody", "values": [{"measurement": "OD 450", "setting": "[1]", "value": 3.06, "unit": "OD 450"}, {"measurement": "OD 450", "setting": "[2]", "value": 2.52, "unit": "OD 450"}]}
